Experimental data: US20260207704A1, “STAPLED PEPTIDES AND METHODS THEREOF” (priority 2022, published 2026)
*1 amine or outer side, *2 acyl side, *3 side chain or, on linkers, in order; H or OH if unused. Bridges are numbered along the chain shown (N, C = ends). Primed or numbered codes have the meaning given here. [ ]: non-standard residue; d: D form. B5(4) = 2-amino-2-(pent-4-en-1-yl)hept-6-enoic acid, stapled through each of its two olefin groups with other olefin-containing amino acid residues, O=C(C(CCCC=[*:3])(CCCC=[*:4])N[*:1])[*:2]; PyrS2″ = (S)-3-amino-1-((pent-4-en-1-yloxy)carbonyl)pyrrolidine-3-carboxylic acid (olefin stapling residue), C=CCCCOC(=O)N1CC[C@@](N[*:1])(C(=O)[*:2])C1; PyrS2 = (S)-3-amino-1-((pent-4-en-1-yloxy)carbonyl)pyrrolidine-3-carboxylic acid, olefin staple residue, C=CCCCOC(=O)N1CC[C@@](N[*:1])(C(=O)[*:2])C1; PyrS2(3) = (S)-3-amino-1-((pent-4-en-1-yloxy)carbonyl)pyrrolidine-3-carboxylic acid, olefin residue, C=CCCCOC(=O)N1CC[C@@](N[*:1])(C(=O)[*:2])C1; PyrS2(5) = (S)-3-amino-1-((pent-4-en-1-yloxy)carbonyl)pyrrolidine-3-carboxylic acid, C=CCCCOC(=O)N1CC[C@@](N[*:1])(C(=O)[*:2])C1; B5″ = 2-amino-2-(pent-4-en-1-yl)hept-6-enoic acid (bis-olefin stapling residue), C=CCCCC(CCCC=C)(N[*:1])C(=O)[*:2]; B5(5) = 2-amino-2-(pent-4-en-1-yl)hept-6-enoic acid (two olefin arms), C=CCCCC(CCCC=C)(N[*:1])C(=O)[*:2]; B5(3) = 2-amino-2-(pent-4-en-1-yl)hept-6-enoic acid, two olefin arms, C=CCCCC(CCCC=C)(N[*:1])C(=O)[*:2]; 2F3MeF″ = aromatic residue, Cc1cccc(C[C@H](N[*:1])C(=O)[*:2])c1F; Phe(3-COOH) = N[C@@H](Cc1cccc(C(=O)O)c1)C(=O)O; 2F3MeF = Cc1cccc(C[C@H](N[*:1])C(=O)[*:2])c1F; Bta = N[C@@H](Cc1csc2ccccc12)C(=O)O; αAllylPro = C=CC[C@@]1(C(=O)O)CCCN1; tBuAla = CC(C)(C)C[C@H](N)C(=O)O; Gly(cBu) = N[C@H](C(=O)O)C1CCC1; 3Thi = N[C@@H](Cc1ccsc1)C(=O)O; PyrS2(4) = not defined here; BztA″ = aromatic residue; CyLeu = not defined here; Nle = CCCC[C@H](N)C(=O)O; TfeGA = not defined here; dGlnR = not defined here; GlnR = not defined here; Cpg = not defined here; PL3 = not defined here; B5 = not defined here; Aib = CC(C)(N)C(=O)O

How the values were obtained:
[1] = biological target: beta-catenin (human); assay: cell-based or functional assay
[2] = biological target: beta-catenin (human); assay: fluorescence polarization

Sequence of beta-catenin (human) (B6V8E6 146-665 limits assumed): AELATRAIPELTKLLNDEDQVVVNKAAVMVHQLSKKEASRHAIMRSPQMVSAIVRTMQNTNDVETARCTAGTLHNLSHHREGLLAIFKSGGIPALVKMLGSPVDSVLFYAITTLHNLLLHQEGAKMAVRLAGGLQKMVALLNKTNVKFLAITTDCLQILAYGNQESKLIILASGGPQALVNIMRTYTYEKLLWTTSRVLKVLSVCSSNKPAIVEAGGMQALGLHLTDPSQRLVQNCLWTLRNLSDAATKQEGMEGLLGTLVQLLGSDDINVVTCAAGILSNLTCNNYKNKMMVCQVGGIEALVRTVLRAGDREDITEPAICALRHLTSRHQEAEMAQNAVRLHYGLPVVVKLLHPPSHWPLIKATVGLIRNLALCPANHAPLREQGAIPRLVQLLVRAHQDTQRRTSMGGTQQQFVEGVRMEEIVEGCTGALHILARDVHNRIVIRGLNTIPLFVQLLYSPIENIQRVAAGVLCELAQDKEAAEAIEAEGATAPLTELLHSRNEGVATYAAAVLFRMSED

Row | NanoBRET Abs IC50 [1] [nM] | IC50 [2] [nM] | NanoBRET Abs IC50 (bin >3.0 uM) [1] [nM] | NanoBRET Abs IC50 (bin >1.5 uM) [1] [nM] | Binder
1 | > 10000 | < 50 |  |  | Ac-[PL3]DL[B5]D[Phe(3-COOH)]AAFK[PyrS2(4)][3Thi][Bta][GlnR]-NH2 (staple 1-4; bridge 10-14; not fully specified (residue 10); printed as Ac-PL3-Asp-Leu-B5-Asp-3COOHF-Ala-Ala-Phe-dLys*3-PyrS2-3Thi-BztA-GlnR*3-NH2; reading uncertain; also: PyrS2 tied into a staple, partner not placed) [I-10]
2 |  | < 50 | < 10000 |  | Ac-[αAllylPro]D[tBuAla][B5(4)]D[TfeGA]AAFK[PyrS2″][2F3MeF][Bta][GlnR][Aib]-NH2 (bridge 10-14; not fully specified (bridges); reading uncertain; also: Lys*3 and GlnR*3 marked *3) [I-127]
3 | > 10000 | < 50 |  |  | XDLXDDQAFKXXXQ (not fully specified; Ac-PL3-Asp-Leu-B5-Asp-Asp-GlnR*3-Ala-Phe-Lys*3-PyrS2-3Thi-BztA-Gln-NH2) [I-8]
4 |  | < 50 | < 10000 |  | Ac-[αAllylPro]DL[B5(4)]D[Phe(3-COOH)]AAF[dGlnR][PyrS2″][3Thi][Bta]K-NH2 (bridge 10-14; not fully specified (bridges); printed as Ac-PL3-Asp-Leu-B5-Asp-3COOHF-Ala-Ala-Phe-DGlnR*3-PyrS2-3Thi-BztA-Lys*3-NH2; reading uncertain; also: DGlnR*3 and Lys*3 marked *3) [I-13]
5 |  | < 50 |  | < 3000 | Ac-[αAllylPro]D[tBuAla][B5]D[Phe(3-COOH)][Nle]AFK[PyrS2″][2F3MeF″][BztA″][GlnR]LS-NH2 (bridge 10-14; not fully specified (bridges); printed as Ac-PL3-Asp-Npg-B5-Asp-3COOHF-nLeu-Ala-Phe-Lys*3-PyrS2-2F3MeF-BztA-GlnR*3-Leu-Ser-NH2; reading uncertain; also: Lys10 and GlnR14 marked *3) [I-137]
6 |  | < 50 |  | < 3000 | Ac-[αAllylPro]D[tBuAla][B5]D[Phe(3-COOH)][CyLeu]AFK[PyrS2″][2F3MeF″][BztA″][GlnR]LS-NH2 (bridge 10-14; not fully specified (bridges); printed as Ac-PL3-Asp-Npg-B5-Asp-3COOHF-CyLeu-Ala-Phe-Lys*3-PyrS2-2F3MeF-BztA-GlnR*3-Leu-Ser-NH2; reading uncertain; also: Lys10 and GlnR14 marked *3) [I-141]
7 | > 10000 | > 1000 |  |  | Ac-[αAllylPro]E[tBuAla][B5(5)]E[Phe(3-COOH)][Aib]AFK[PyrS2(5)][3Thi][Bta][GlnR]A-NH2 (bridge 10-14; not fully specified (bridges); printed as Ac-PL3-Glu-Npg-B5-Glu-3COOHF-Aib-Ala-Phe-Lys*3-PyrS2-3Thi-BztA-GlnR*3-Ala-NH2; reading uncertain) [I-470]
8 | < 1500 | < 50 |  |  | Ac-[αAllylPro]D[tBuAla][B5]D[Phe(3-COOH)][Gly(cBu)]AFK[PyrS2″][2F3MeF″][BztA″][GlnR]LS-NH2 (bridge 10-14; not fully specified (bridges); printed as Ac-PL3-Asp-Npg-B5-Asp-3COOHF-Cbg-Ala-Phe-Lys*3-PyrS2-2F3MeF-BztA-GlnR*3-Leu-Ser-NH2; reading uncertain; also: Lys10 and GlnR14 marked *3) [I-140]
9 |  | < 50 |  | < 3000 | Ac-[αAllylPro]D[tBuAla][B5]D[Phe(3-COOH)][Aib]AFK[PyrS2″][2F3MeF″][BztA″][GlnR]LS-NH2 (bridge 10-14; not fully specified (bridges); printed as Ac-PL3-Asp-Npg-B5-Asp-3COOHF-Aib-Ala-Phe-Lys*3-PyrS2-2F3MeF-BztA-GlnR*3-Leu-Ser-NH2; reading uncertain; also: Lys10 and GlnR14 marked *3) [I-138]
10 | > 10000 | > 1000 |  |  | Ac-[αAllylPro]D[tBuAla][B5]D[Phe(3-COOH)][GlnR](29N2spiroundecane)AFL[PyrS2][2F3MeF][Bta][GlnR]A-NH2 (staple 1-4, 4-11 (inferred); not fully specified; printed as Ac-PL3-Asp-Npg-B5-Asp-3COOHF-[29N2spiroundecane]GlnR-Ala-Phe-Leu-PyrS2-2F3MeF-BztA-GlnR-Ala-NH2; reading uncertain; also: staple C=C reduced to CH2-CH2) [I-135]
11 |  | < 50 |  | < 3000 | Ac-[αAllylPro]D[tBuAla][B5]D[Phe(3-COOH)][Cpg]AFK[PyrS2″][2F3MeF″][BztA″][GlnR]LS-NH2 (bridge 10-14; not fully specified (bridges); printed as Ac-PL3-Asp-Npg-B5-Asp-3COOHF-Cpg-Ala-Phe-Lys*3-PyrS2-2F3MeF-BztA-GlnR*3-Leu-Ser-NH2; reading uncertain; also: Lys10 and GlnR14 marked *3) [I-139]
12 |  | < 50 | < 10000 |  | Ac-[αAllylPro]N[tBuAla][B5]D[Phe(3-COOH)][Aib]AFK[PyrS2″][2F3MeF″][BztA″][GlnR]LS-NH2 (bridge 10-14; not fully specified (bridges); printed as Ac-PL3-Asn-Npg-B5-Asp-3COOHF-Aib-Ala-Phe-Lys*3-PyrS2-2F3MeF-BztA-GlnR*3-Leu-Ser-NH2; reading uncertain; also: Lys10 and GlnR14 marked *3) [I-144]
13 | > 10000 | < 50 |  |  | XDLXDDAAFQXXXK (not fully specified; Ac-PL3-Asp-Leu-B5-Asp-Asp-Ala-Ala-Phe-DGlnR*3-PyrS2-3Thi-BztA-Lys*3-NH2) [I-5]
14 | > 10000 | < 50 |  |  | Ac-[αAllylPro]DL[B5(3)]DDKAF[GlnR][PyrS2(3)][3Thi][Bta]Q-NH2 (bridge 7-10; not fully specified (bridges); printed as Ac-PL3-Asp-Leu-B5-Asp-Asp-Lys*3-Ala-Phe-GlnR*3-PyrS2-3Thi-BztA-Gln-NH2; reading uncertain) [I-7]
15 |  | < 50 |  | < 3000 | Ac-[αAllylPro]D[tBuAla][B5]D[Phe(3-COOH)]AAFK[PyrS2″][2F3MeF″][BztA″][GlnR]LS-NH2 (bridge 10-14; not fully specified (bridges); printed as Ac-PL3-Asp-Npg-B5-Asp-3COOHF-Ala-Ala-Phe-Lys*3-PyrS2-2F3MeF-BztA-GlnR*3-Leu-Ser-NH2; reading uncertain; also: Lys10 and GlnR14 marked *3) [I-136]
16 | > 10000 | < 50 |  |  | Ac-[αAllylPro]DL[B5(5)]DDAAFK[PyrS2(5)][3Thi][Bta][GlnR]-NH2 (bridge 10-14; not fully specified (bridges); printed as Ac-PL3-Asp-Leu-B5-Asp-Asp-Ala-Ala-Phe-Lys*3-PyrS2-3Thi-BztA-GlnR*3-NH2; reading uncertain) [I-4]
17 | > 10000 | < 50 |  |  | XDLXDDAAFQXXXK (not fully specified; Ac-PL3-Asp-Leu-B5-Asp-Asp-Ala-Ala-Phe-GlnR*3-PyrS2-3Thi-BztA-Lys*3-NH2) [I-6]
18 |  | < 50 | < 10000 |  | Ac-[αAllylPro]D[tBuAla][B5(4)]D[TfeGA]AAFK[PyrS2(5)][2F3MeF][Bta][GlnR]V-NH2 (bridge 10-14; not fully specified (bridges); reading uncertain; also: Lys*3 and GlnR*3 marked *3) [I-129]
19 |  | < 50 | < 10000 |  | Ac-[αAllylPro]DL[B5″]D[Phe(3-COOH)]AAFK[PyrS2″][3Thi][Bta][GlnR]-NH2 (bridge 10-14; not fully specified (bridges); printed as Ac-PL3-Asp-Leu-B5-Asp-3COOHF-Ala-Ala-Phe-Lys*3-PyrS2-3Thi-BztA-GlnR*3-NH2; reading uncertain; also: Lys*3 and GlnR*3 marked *3) [I-12]
20 |  | < 50 |  | < 3000 | Ac-[PL3]DL[B5]D[Phe(3-COOH)]AAFK[PyrS2(4)][3Thi][Bta][GlnR]-NH2 (staple 1-4; bridge 10-14; reading uncertain; also: PyrS2 tied into a staple, partner not placed, printed as Ac-PL3-Asp-Leu-B5-Asp-3COOHF-Ala-Ala-Phe-Lys*3-PyrS2-3Thi-BztA-GlnR*3-NH2) [I-11]
21 |  | < 50 | < 10000 |  | Ac-[αAllylPro]D[tBuAla][B5(4)]D[TfeGA]AAFK[PyrS2″][2F3MeF][Bta][GlnR][Aib]-NH2 (bridge 10-14; not fully specified (bridges); reading uncertain; also: Lys*3 and GlnR*3 marked *3) [I-126]
